Substrate in this data set: Nc1ncnc2c1ncn2[C@@H]1O[C@H](COP(=O)(O)OP(=O)(O)OP(=O)(O)O)[C@@H](O)[C@H]1O
The data set can be described thus: ATPase, malachite green phosphate release, Lineweaver-Burk plot. Type of data set: biochemical, Magnetobacterium casense (SeqCode). As to conditions: assay buffer of b46: 20 mmol/L Tris-HCl pH 8.0, 0.2 mmol/L MgCl2, 50 mmol/L NaCl, 37°C, kinetic details in supplement. An excerpt: ATPase, malachite green phosphate release, Lineweaver-Burk plot on MamK from 'Candidatus Magnetobacterium casensis' (Mcas MamK) | we calculated the Vmax and Km of the ATPase activity as […]

B1: MamK from 'Candidatus Magnetobacterium casensis' (Mcas MamK) (Magnetobacterium casense (SeqCode)) (protein)
chain: MTKTKILNIGIDLGTSRSVIACDNGVRTFVPSYVGFPKDAVSRKMFGRDVIFGDEAIKHRMALNLFRPFDKGMIKYADTNPESKEYKNALYVAKALLQHLVDLAKEGDQERGVDYIVRGVIGAPALASRKNRKALLDVARGILDGVMISSEPFTVAYGLNLLSNALIIDIGAGTVDLCRMHGTIPTDEDQITTFKAGDYVDQAFYDLITKKYKDVNLTINMVKKFKEENAFISSQGERVFIEVPVKGKPEKRDITDELRQACRMIVPDIVEGIRKLIAEYDPEFQNNLKQNVVLAGGGSQIIGLRKEIEDYMIETLGYGKVIKIEEPLFAGANGAMMLCKDMPDEYWDEVSKR
notes: full-length mamK from Mcas genomic DNA in pET28a and pET22b, E. coli C43 (DE3); His tag removed leaving three N-terminal residues (tagged forms also examined); filament-forming
On to B1, for which the Km was 71.02 µM and the kcat was found to be 0.0633 s⁻¹.

For orientation: Km means the substrate concentration at which the rate is half of its maximum. The kcat is the maximal rate divided by the concentration of active sites.

The record behind these values is paper PMC4818849, “In vitroassembly of the bacterial actin protein MamK from ‘CandidatusMagnetobacterium casensis’ in the phylumNitrospirae” (Protein & Cell, 2016).
